Biological target: T1, NF-kB p50 homodimer (UniProt P19838)
T1 sequence: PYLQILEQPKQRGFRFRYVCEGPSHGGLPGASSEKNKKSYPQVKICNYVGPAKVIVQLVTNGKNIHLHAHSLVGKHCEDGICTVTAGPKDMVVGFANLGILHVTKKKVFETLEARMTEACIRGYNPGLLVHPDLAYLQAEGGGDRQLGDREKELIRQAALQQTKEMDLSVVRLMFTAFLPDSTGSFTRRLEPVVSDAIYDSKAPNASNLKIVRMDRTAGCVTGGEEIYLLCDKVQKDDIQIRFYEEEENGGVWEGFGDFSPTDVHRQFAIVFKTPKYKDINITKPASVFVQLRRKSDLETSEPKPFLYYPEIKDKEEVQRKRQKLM
Experiment: SPR
Settings: EMSA: 10 mM Tris-HCl pH 7.5, 50 mM NaCl, 1 mM DTT, 1 mM EDTA, BSA (printed 10 mg/mL), 1% NP-40, 5% glycerol, poly(dI-dC), 20 C 45 min, SPR: 10 mM Tris-HCl pH 7.; for binding signal (% of unplatinated plateau): steady state

[1] = BBR3464 adducts, 1 per duplex, global
[2] = transplatin adducts, 1 per duplex, global

“CCTACCAAGTCTGAGGGGACTTTCCCAGGC (double strand) [DUPLEX-kB(SPR-BIO) cisplatin]” gave a Kd (cisplatin adducts, 1 per duplex, global) of 2.38 nM.

Sequence “CCTACCAAGTCTGAGGGGACTTTCCCAGGC (double strand) [DUPLEX-kB(SPR-BIO) BBR3464]” has a Kd [1] of 3.99 nM and a binding signal (% of unplatinated plateau) [1] of 21.

“CCTACCAAGTCTGAGGGGACTTTCCCAGGC (double strand) [DUPLEX-kB(SPR-BIO) transplatin]” showed a binding signal (% of unplatinated plateau) [2] of 88 and a Kd [2] of 1.99 nM.

“CCTACCAAGTCTGAGGGGACTTTCCCAGGC (double strand) [DUPLEX-kB(SPR-BIO)]” showed a Kd of 1.96 nM.

Source: article PMC5004165
